# ± gives the standard deviation.
# Assay: protein stability index of a GFP-peptide fusion (GPS, HEK-293T) (PSI 1-6); higher = more stable
# Details: c terminus: a fixed tail appended
# 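Also: 24-mer peptide tiles fused after GFP, lentivirally expressed, FACS-sorted into six equal bins by GFP/DsRed ratio, decoded by Illumina sequencing, PSI is the read-weighted mean bin number.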
sequence,measurement,setting,value
TVPKNDADDESETPEELEEEIPVV [GLT8D2],protein stability index,treatment: DMSO,5.63 ± 0.12
same,protein stability index,"treatment: MLN4924 1 uM, 8 h",5.53 ± 0.26
GELRLGKNLYTNEYVAIKLEPMKS [CSNK1G3],protein stability index,treatment: DMSO,2.32 ± 0.29
same,protein stability index,"treatment: MLN4924 1 uM, 8 h",2.27 ± 0.7
RDLASVPPELTASRQSFRMAMGNP [DVL3],protein stability index,treatment: DMSO,3.75 ± 0.32
same,protein stability index,"treatment: MLN4924 1 uM, 8 h",3.81 ± 0.13
ESSTREVVFPYTSKSCMRAVLEYL [RHOBTB2],protein stability index,treatment: DMSO,2.74 ± 0.13
same,protein stability index,"treatment: MLN4924 1 uM, 8 h",2.32 ± 0.25
NKVELQAKVESMDQEIKFFRCLFE [KRT71],protein stability index,treatment: DMSO,2.52 ± 0.51
same,protein stability index,"treatment: MLN4924 1 uM, 8 h",2.48 ± 0.38
KEDIDLIDILWRQDIDLGAGREVF [NFE2L1],protein stability index,treatment: DMSO,2.75 ± 0.57
same,protein stability index,"treatment: MLN4924 1 uM, 8 h",3.47 ± 0.88
VVNHLSCDEARNHYGGVVSLIPLI [SPACA9],protein stability index,treatment: DMSO,2.2 ± 0.14
same,protein stability index,"treatment: MLN4924 1 uM, 8 h",2.12 ± 0.24
VLTIALPVPVIVSNFNYFYHRETE [KCNA1],protein stability index,treatment: DMSO,3.02 ± 0.47
same,protein stability index,"treatment: MLN4924 1 uM, 8 h",3.06 ± 0.41
RGKKLMVLTEPILIETYTGLMSFI [TPRG1],protein stability index,treatment: DMSO,2.95 ± 0.34
same,protein stability index,"treatment: MLN4924 1 uM, 8 h",2.6 ± 0.48
RMGDADYLAAWHRLVLPIAYEFNP [HDAC6],protein stability index,treatment: DMSO,2.27 ± 0.56
same,protein stability index,"treatment: MLN4924 1 uM, 8 h",2.3 ± 0.44
LDPHFVPTELWPQEAVPLGLGLED [TEX19],protein stability index,treatment: DMSO,5.13 ± 0.3
same,protein stability index,"treatment: MLN4924 1 uM, 8 h",4.91 ± 0.17
GPFDQGSPFAQELLDDGQQASPYH [ELF3],protein stability index,treatment: DMSO,5.16 ± 0.18
same,protein stability index,"treatment: MLN4924 1 uM, 8 h",4.96 ± 0.13
FLLFLLTGIVSVAFLLLPLPDELG [MOSPD3],protein stability index,treatment: DMSO,3.36 ± 0.39
same,protein stability index,"treatment: MLN4924 1 uM, 8 h",2.89 ± 0.9
VCQEVLERSRDVVDDVSVSLRLWD [RHOBTB2],protein stability index,treatment: DMSO,3.31 ± 0.19
same,protein stability index,"treatment: MLN4924 1 uM, 8 h",3.44 ± 0.37
RTNLPIFKLKESCVRRRYSDFEWL [SNX12],protein stability index,treatment: DMSO,2.27 ± 0.29
same,protein stability index,"treatment: MLN4924 1 uM, 8 h",2.74 ± 0.56
IKCETSPPSSPRTLRLEKLGHPAL [PPFIA4],protein stability index,treatment: DMSO,3.48 ± 0.35
same,protein stability index,"treatment: MLN4924 1 uM, 8 h",3.56 ± 0.22
FCDMDKSLLCLLCSNSQEHGAHKH [TRIM43],protein stability index,treatment: DMSO,2.49 ± 0.37
same,protein stability index,"treatment: MLN4924 1 uM, 8 h",3 ± 0.67
YSDGADDTFAAYTREQLYQAIFHA [MCOLN1],protein stability index,treatment: DMSO,2.54 ± 0.23
same,protein stability index,"treatment: MLN4924 1 uM, 8 h",2.52 ± 0.37
YYGFSESAESQGLDGAGLMGFVPH [ADAMTSL2],protein stability index,treatment: DMSO,3 ± 0.41
same,protein stability index,"treatment: MLN4924 1 uM, 8 h",3 ± 0.47
SSLTADLLSVDAFAAPSPATTASP [SNAP91],protein stability index,treatment: DMSO,4.65 ± 0.19
same,protein stability index,"treatment: MLN4924 1 uM, 8 h",4.7 ± 0.083
AGALAQGGGPSATEWACILRRKTP [C6orf223],protein stability index,treatment: DMSO,3.56 ± 0.17
same,protein stability index,"treatment: MLN4924 1 uM, 8 h",3.75 ± 0.29
SYDELCFLEQRPQSPTLEFLLRNS [EDARADD],protein stability index,treatment: DMSO,3.1 ± 0.2
same,protein stability index,"treatment: MLN4924 1 uM, 8 h",3 ± 0.1
QTNSTKNSAAATSPKGTLPPAALE [CAMK2B],protein stability index,treatment: DMSO,5.32 ± 0.16
same,protein stability index,"treatment: MLN4924 1 uM, 8 h",5.22 ± 0.24
METGRWKKINTEGDVPPSMSGSCA [KLHDC2],protein stability index,treatment: DMSO,4.01 ± 0.34
same,protein stability index,"treatment: MLN4924 1 uM, 8 h",4.21 ± 0.097
MGGCPVRKRRRNGSKEGNHHSTQP [FAM104B],protein stability index,treatment: DMSO,4.72 ± 0.17
same,protein stability index,"treatment: MLN4924 1 uM, 8 h",4.86 ± 0.24
PPPPHPYNPHPGFPELGYSYGGGS [DVL3],protein stability index,treatment: DMSO,3.4 ± 0.32
same,protein stability index,"treatment: MLN4924 1 uM, 8 h",3.6 ± 0.32
RKRRLFCTMEPEPVQPGMLIDVCK [TRIM35],protein stability index,treatment: DMSO,2.6 ± 0.41
same,protein stability index,"treatment: MLN4924 1 uM, 8 h",2.69 ± 0.12
AFHEPQVGLIQAAQQLLCDEQAPQ [DFFB],protein stability index,treatment: DMSO,4.64 ± 0.18
same,protein stability index,"treatment: MLN4924 1 uM, 8 h",4.92 ± 0.18
QEHPRQQLATSSFLLFLLTGIVSV [MOSPD3],protein stability index,treatment: DMSO,3.32 ± 0.49
same,protein stability index,"treatment: MLN4924 1 uM, 8 h",2.83 ± 0.096
YGRSDVVVLCFSIANPNSLHHVKT [RHOBTB2],protein stability index,treatment: DMSO,3.33 ± 0.47
same,protein stability index,"treatment: MLN4924 1 uM, 8 h",2.69 ± 1.8
EMREIRRKLRELQLRNCLRILMGE [BEX3],protein stability index,treatment: DMSO,2.35 ± 0.38
same,protein stability index,"treatment: MLN4924 1 uM, 8 h",2.28 ± 0.38
DFSGLTLDGALRTFLKAFPLMGET [PSD2],protein stability index,treatment: DMSO,1.91 ± 0.24
same,protein stability index,"treatment: MLN4924 1 uM, 8 h",2.05 ± 0.34
MGTRDDEYDYLFKVVLIGDSGVGK [RAB11A],protein stability index,treatment: DMSO,2.27 ± 0.41
same,protein stability index,"treatment: MLN4924 1 uM, 8 h",2.44 ± 0.35
PSSLMETLEQHLNTLEGKKPGNNE [SNAP91],protein stability index,treatment: DMSO,5.17 ± 0.09
same,protein stability index,"treatment: MLN4924 1 uM, 8 h",5.05 ± 0.17
DPVRQCAECALVSLKEAEFYDKQL [ZFYVE21],protein stability index,treatment: DMSO,3.62 ± 0.046
same,protein stability index,"treatment: MLN4924 1 uM, 8 h",3.67 ± 0.32
QTVFQKKNLQQTTNTTSTQMTNIG [IQUB],protein stability index,treatment: DMSO,4.08 ± 0.2
same,protein stability index,"treatment: MLN4924 1 uM, 8 h",4.28 ± 0.27
RELAERGVRIVSRGRTQLFSLNPR [PCDHGA10],protein stability index,treatment: DMSO,3.2 ± 0.35
same,protein stability index,"treatment: MLN4924 1 uM, 8 h",3.33 ± 0.12
PFYPEVELNFISVFWPQLPNGLEA [MMP1],protein stability index,treatment: DMSO,2.61 ± 0.28
same,protein stability index,"treatment: MLN4924 1 uM, 8 h",2.62 ± 0.52
HEKIGFPAARRCHSCVQIKNDVFI [KLHDC10],protein stability index,treatment: DMSO,1.89 ± 0.31
same,protein stability index,"treatment: MLN4924 1 uM, 8 h",1.73 ± 0.27
CDDSFTPQEKLWQQLRRGRYVEFN [CPOX],protein stability index,treatment: DMSO,3.08 ± 0.14
same,protein stability index,"treatment: MLN4924 1 uM, 8 h",2.89 ± 0.3
VLDLSKSLSAALLTAALLTFDTGC [POMT2],protein stability index,treatment: DMSO,3.38 ± 0.38
same,protein stability index,"treatment: MLN4924 1 uM, 8 h",2.98 ± 0.2
AIHQDPPDECGKTEFTRFLCSSPL [ATE1],protein stability index,treatment: DMSO,3.78 ± 0.24
same,protein stability index,"treatment: MLN4924 1 uM, 8 h",3.82 ± 0.17
NGITQGDKLRALKSQRQPRTSPSC [CDC14A],protein stability index,treatment: DMSO,4.16 ± 0.19
same,protein stability index,"treatment: MLN4924 1 uM, 8 h",4.14 ± 0.071
GMVRAHGVRVSVPCPSTTCCRACS [BET1L],protein stability index,treatment: DMSO,3.04 ± 0.29
same,protein stability index,"treatment: MLN4924 1 uM, 8 h",3.4 ± 0.51
GEDTRLSASEMKQLIDNILEESDI [CIB1],protein stability index,treatment: DMSO,5.27 ± 0.27
same,protein stability index,"treatment: MLN4924 1 uM, 8 h",5.26 ± 0.25

# Reference: the supplement of paper PMC10567573
